Measurements from patent US20040071656A1, “Modulation of heat-shock-protein-based immunotherapies” (priority 2001, published 2004).

Biological target: T1, exoplasmic domain of human CD40 (GST-CD40) (Homo sapiens, UniProt P25942)
T1 construct: The cDNA for the exoplasmic domain of CD40 (amino acids 20-212); made in house; host or cells: E. coli, pGEX-2T
Experiment: GST-CD40 binding and competition assay with recombinant Hsp70 and its domains
Conditions: ADP, 5-fold molar excess of competitor
Method: For binding assays with recombinant Hsp70 and its domains, 3 μM His6-Hsp70 or its His6-tagged domains were incubated with 2 mM ATP, 2 mM ADP or 2 mM ADP and 28 μM peptide C in 50 μl binding buffer (10 mM MOPS/KOH, pH 7.2, 150 mM KCl and 3 mM MgCl2) for 30 min at 37° C. In competition experiments binding was probed with either a 10-fold excess of Hsp70, the two domains, or DnaK, or with a 5-fold excess of Hip or Bag 1 for 10 min at 0° C. To this end, Hsp70, N70, C70 and DnaK were preincubated with ADP, ATP and peptide C as described above. […] 10 μl of the eluates were subjected to SDS-PAGE and analyzed by immunoblotting using a Penta-His-antibody (Quiagen). Blot signals were quantified by Quantity One (Biorad).
Details for FIG. 3. […] Thereafter samples were affinity purified on glutathione-Sepharose as outlined in Experimental Procedures, subjected to SDS-PAGE and analyzed by immunoblotting with antibodies directed against Hsc70 and Hsp70 (upper lanes), and against Hsp90 (lower lanes). […] After affinity purification samples were analyzed by immunoblotting as described in A, using antibodies directed against the His6-tag. […] Protein bound to Hsp70 was analyzed by affinity purification on Ni-NTA-agarose and immunoblotting with antibodies directed against CD40. […]
Details for FIG. 5. […] The lower panel is a quantitation of the data. […]

T1 sequence (P25942 20-212): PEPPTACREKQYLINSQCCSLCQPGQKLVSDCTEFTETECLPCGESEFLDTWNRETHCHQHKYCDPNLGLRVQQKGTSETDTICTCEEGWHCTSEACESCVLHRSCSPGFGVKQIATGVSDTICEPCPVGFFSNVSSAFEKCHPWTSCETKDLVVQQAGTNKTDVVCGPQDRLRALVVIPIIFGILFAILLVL

B1: Hip: Hsp70 cochaperone that stabilizes the ADP-state of Hsp70, recombinant His-tagged (protein, UniProt P50502 1-369, looked up)
Hsc70-interacting protein: MDPRKVNELRAFVKMCKQDPSVLHTEEMRFLREWVESMGGKVPPATQKAKSEENTKEEKPDSKKVEEDLKADEPSSEESDLEIDKEGVIEPDTDAPQEMGDENAEITEEMMDQANDKKVAAIEALNDGELQKAIDLFTDAIKLNPRLAILYAKRASVFVKLQKPNAAIRDCDRAIEINPDSAQPYKWRGKAHRLLGHWEEAAHDLALACKLDYDEDASAMLKEVQPRAQKIAEHRRKYERKREEREIKERIERVKKAREEHERAQREEEARRQSGAQYGSFPGGFPGGMPGNFPGGMPGMGGGMPGMAGMPGLNEILSDPEVLAAMQDPEVMVAFQDVAQNPANMSKYQSNPKVMNLISKLSAKFGGQA
modifications: His tag
notes: Hsp70 cochaperone that stabilizes the ADP-state of Hsp70, recombinant His-tagged
competition for the binding of full-length Hsp70 to CD40: acted as an effective competitor of the interaction
